# From the nanobody polyreactivity screen of Harvey et al. (2022)
# Assay: yeast display, Sf9 membrane polyspecificity reagent, FACS + sequencing; frameworks hold sequencing errors
# Method in brief: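 A nanobody's polyreactivity label depends on the gate it was sorted from. Yeast display cells were stained with 10% biotinylated, detergent-solubilized Sf9 membrane reagent for 1 hour at 4 °C, enriched on streptavidin microbeads and sorted by FACS. The low and high (top ~1%) gates were set on anti-HA fluorescence for expression and streptavidin fluorescence for reagent binding.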
row,Sequence,polyreactivity (PSR sort gate)
1,QVQLVESGGGLVQAGGSLRLSCAASGSIFDVYAMGWYRQAPGQERELVAAISRGDSTNYADSVKGRFTISRDNAKNTVYLQMNSLKPEDTAVYYCAADCYYWGSGWRYDSWGQGTQVTVSS,low polyreactivity
2,QVQLVESGGGLVQAGGSLRLSCAASGSIFDVYTMGWSRQAPGKERELVAAISKRSGRTYYADSVKGRFTISRDNAKNTVYLQMNSLKPEDTAVYYCAARGYPTTAVTYDYWGQGTQVTVSS,low polyreactivity
3,QVQLVESGGGLVQAGGSLRLSCAASGSIFDVYTMGWYRPAPGKERELVAAISWSGGSTFYADSVKGRFTISRDNAKNTVYLQMNSLKPEDTAVYYCAAELSLGNYWYDFWGQGTQVTVSS,high polyreactivity
4,QVQLVESGGGLVQAGGSLRLSCAASGSIFDVYVMGWYRQAPGKERELVAAITSTGSTNYADSVKGRFTISRDNAKNTVYLQMNSLKPEDTAVYYCATDGVYKHIQVLYDYWGQGTQVTVSS,low polyreactivity
5,QVQLVESGGGLVQAGGSLRLSCAASGSIFDWNGMGWYRQAPGKERELVAAITWRGGRTYYADSVKGRFTISRDNAKNTVYLQMNSLKPEDTAVYYCAATRFFYSRYNYWGQGTQVTVSS,high polyreactivity
6,QVQLVESGGGLVQAGGSLRLSCAASGSIFDWYVMGWYRQAPGKERELVAAITSGGSTNYADSVKGRFTISRDNAKNTVYLQMNSLKPEDTAVYFCAADTVSFSILYDYWGQGTQVTVSS,low polyreactivity
7,QVQLVESGGGLVQAGGSLRLSCAASGSIFDYNAMGWNRQAPGKDRELVAAISSGGSTYYADSVKGRFTISRDNAKNTVYLQMNSLKPEDTAVYYCAVKFWMVIQFDYWGQGTQVTVSS,low polyreactivity
8,QVQLVESGGGLVQAGGSLRLSCAASGSIFDYNAMGWYRQAPGKEREFVAAISSSAGSTYYADSVKGRFTISRDNAKNTVYLEMNSLKPEDTAVYYCAADWYDFSFPYYEYEYWGQGTQVTVSS,low polyreactivity
9,QVQLVESGGGLVQAGGSLRLSCAASGSIFDYNAMGWYRQAPGKEREFVAAISSSAGSTYYADSVKGRFTISRDNAKNTVYLQMNSLKPEDTAVYYCAARYQSPFRTYRFGMDYWGQGTQVTVSS,low polyreactivity
10,QVQLVESGGGLVQAGGSLRLSCAASGSIFDYNAMGWYRQAPGKERELVAAISRSGGSTYYADSVKGRFTISRDNAKNTVYLQMNSLKPEDTAVYYCAALPSRPRGYDYWGHGTQVTVSS,high polyreactivity
11,QVQLVESGGGLVQAGGSLRLSCAASGSIFDYNAMGWYRQAPGKERELVASISGDSGSTYYADSVKGRFTISRDNAKNTDYLQMNSLKPEDTAVYYCAAPYVSWDYRYYYWGQGTQVTLSS,low polyreactivity
12,QVQLVESGGGLVQAGGSLRLSCAASGSIFDYNTMGWYRQAPGKERELVAAISSGGSTYYADSVKGRFTISRDNAKNTVYLQMNSLKPEDTAVYYCAARRAGWWGFYYWGQATQVTVSS,high polyreactivity
13,QVQLVESGGGLVQAGGSLRLSCAASGSIFDYTAMGWYRQAPGKERELVASIRWSGGRTYYADSVKGRFTISRDNAKNTVYLQMNSLKPEDTAVYYCNRKPQEYVLQGSSNGYDYWGQGTQVTVSS,low polyreactivity
14,QVQLVESGGGLVQAGGSLRLSCAASGSIFDYYALGWYRQAPGKERELVATITSGVSTYYADSVKGRFTISRDNAKNTVYLQMNSLKPEDTAVYYCARDYAKSQDLYKYDYWGQGTQVTLSS,low polyreactivity
15,QVQLVESGGGLVQAGGSLRLSCAASGSIFDYYAMGWYRPAPVKERELVAAISDSGSTYYADSVKGRFTISRDNAKNTVYLQMNSLKPEDTAVYYCAAVLWSPYLSEPLETYEYWGQGTQVTVSS,low polyreactivity
16,QVQLVESGGGLVQAGGSLRLSCAASGSIFDYYAMGWYRQAPGKERELVAAISRSGTTNYADSVKGRFTISRDNAKNTVYFQMNSLKPEDTAVYYCNARTRGYRYTSALYYWGQGTQVTVSS,high polyreactivity
17,QVQLVESGGGLVQAGGSLRLSCAASGSIFDYYAMGWYRQAPGKERELVAAISTSTSSTYYADSVKGRFTISRDNAKNTVYLQMNSLKPEDTAVYYCAAEGESQPESPGYDYWGQGTQVTVSS,low polyreactivity
18,QVQLVESGGGLVQAGGSLRLSCAASGSIFDYYTMGWYRQAPGKERELVASITRDGTSTYYADSVKGRFTISRDNAKNTVYLQMNSLKPEDTAVYYCAAERYGFTYSFYYWGQGTQVTVSS,low polyreactivity
19,QVQLVESGGGLVQAGGSLRLSCAASGSIFDYYVMGWYRQSPGKERELVAAISLSGGSTYYADSVKGRFTISRDNAKNTVYLQMNSLKPEDTAVYYCNADSQWYDYDYWGQGTQVTVSS,high polyreactivity
20,QVQLVESGGGLVQAGGSLRLSCAASGSIFEGNAMGWYRQAPGKERELVAAISTTGGITYYADSVKGRFTISRDNAKNTVFLQMNSLKPEDTAVYYCAADPSQPRIDSSNYDYWGQGTQVTLSS,low polyreactivity
21,QVQLVESGGGLVQAGGSLRLSCAASGSIFEGNGMGRYRQAPGKERELVAAITFRSGSTYYADSVKGRFTISRDNAKNTVYLQMNSLKPEDTAVYYCAADEYYQVSAYDYWGQGTQVNVSS,low polyreactivity
22,QVQLVESGGGLVQAGGSLRLSCAASGSIFEGNTMGWYRQAPGKERELVASISSTANTYYADSVKGRFTLSRDNAKKNVYLQMNSLKPEDTAVYYCNVARYFLVPVVDDNYWGQGTQVTVSS,low polyreactivity

row,Sequence,polyreactivity (PSR sort gate)
1,QVQLVESGGGLVQAGGSLRLSCAASGSIFEGYVMGWYRQAPGKERELVATISFSGGSTYYADSVKGRFTISRDNAKNTVYLQMNSLKPEDTAVYYCATSRYFNTGRGYWGQGTQVTVSS,low polyreactivity
2,QVQLVESGGGLVQAGGSLRLSCAASGSIFEINAMGWYRQAPGKERELVAAITGSGGSTHYADSVKGRFTISRDTAKNTVYLQMNSLKPEDTAVYYCAADICYFTKYGYWGQGTQVTVSS,low polyreactivity
3,QVQLVESGGGLVQAGGSLRLSCAASGSIFEINAMGWYRQGPGKERELVAAITGSGGSTHYADSVKGRFTISRDNAKNTDYLQMNSLKPEDTAVYYGAAVPRYQDGYWGQGTQVTVSS,low polyreactivity
4,QVQLVESGGGLVQAGGSLRLSCAASGSIFEPNAMGWYRQAPGKERELVAAISWNDGDTYYADSVKGRFTISRDNAKNTVYLQMNCLKPEDTAVYYCAAETGYAFDYWGQGTQVTVSS,low polyreactivity
5,QVQLVESGGGLVQAGGSLRLSCAASGSIFEPNAMGWYSQAPGKERELVAAISWNDGDTYYADSVKGRFTISRDNAKNTVYLQMNSLKPEDTAVYYCAAETGYAFDYWGQGTQVTVSS,low polyreactivity
6,QVQLVESGGGLVQAGGSLRLSCAASGSIFEPYAMGLYRQAPGKERELVAAIRWSGGSTYYADSVKGRFTISRDNAKNTVYLQMNSLKPEDTAVYYCAKYFPAGYYYWGQGTQVTVSS,low polyreactivity
7,QVQLVESGGGLVQAGGSLRLSCAASGSIFERYDMGWYRQAPGKERELVAAITSAGITYYADSVKGRFTISRDNAKNTVYLQMNSLKPEDTAVYYCAAQGRRGAPYRHVIEGDYWGQGTQVTVSS,low polyreactivity
8,QVQLVESGGGLVQAGGSLRLSCAASGSIFESNAMGWYRQAPGKEREFVAAIDWGDGSTSYADSVKGRFTISRDNAKNTVYLQMNSLKPEDTAVYYCAARSVFDLVYYNLIFDYWGQGTQVTVSS,high polyreactivity
9,QVQLVESGGGLVQAGGSLRLSCAASGSIFESYAMGWYRQAPGKERELVAAITKRGGSTYYADSVKGRFTISRDNAKYTVYLQMNSLKPEDTAVYYCNARWPGIGPIYDYCGQGTQVTVSS,low polyreactivity
10,QVQLVESGGGLVQAGGSLRLSCAASGSIFEVDALGWYRQAPGKERELVAAITSSDITYYADSVKGRFTISRDHAKTTVYLQMNSLKPEDTAVYYCNGEPPYRVKRSDYWGQGTQVTVSS,low polyreactivity
11,QVQLVESGGGLVQAGGSLRLSCAASGSIFEVNAMGWYRQAPGKERELVATITYSGGSTYYSDSVKGRFTISRDNAKNTVYLQMHSLKPEDTAVFYCAAPIGDVYVGNGYDSWGQGTQVTVSS,low polyreactivity
12,QVQLVESGGGLVQAGGSLRLSCAASGSIFEWYAMGWYRQAPGKASALVAAISSGGRTYYADSVKGRFTISRDNAKNTVYLQMISLKPEDTAVYYCAARDVDHVGGSKYYYWGLGTQVTVSS,high polyreactivity
13,QVQLVESGGGLVQAGGSLRLSCAASGSIFEYNAMGWYRQAPGKERELVAAISRSGGSTYYADSVKGRFTISRDNAKNTVYLQMISLKPEDTAVYYCAARSPRYYRDFGYWGQGTQVTVSS,high polyreactivity
14,QVQLVESGGGLVQAGGSLRLSCAASGSIFEYNGMGWYRQAPGKERELVAAITTTGTTDYADSVKGRFTISRDNAKNTVYLEMNSLIPEDTSVFYCAADYTYYYKGEYEYWGQGTQVTVSS,low polyreactivity
15,QVQLVESGGGLVQAGGSLRLSCAASGSIFEYYAMGWYRQAPGKERELVADITTIGGSTYYADSVKGRFTISRDNAKNTVYLQMNSLKPEDTAVYYCAADYFTTFYWYDYWGQGTQVTVSS,high polyreactivity
16,QVQLVESGGGLVQAGGSLRLSCAASGSIFFAYAMGWYRQAPGKERELVAAITSGVSTNYADSVKGRFTISRDNAKNTVYLQMNSLKPEDTAVYYCNADFDYGFDAGLAVQVVIHDYWGQGTQVTVSS,low polyreactivity
17,QVQLVESGGGLVQAGGSLRLSCAASGSIFFDYAMGGYRQAPGKERELVAAINSGGTTNYADSVKGRFTISRDNAKNTVYLQMKQPETGRYRGLLLQRFPGYLRWYRWFDYWGQGTQVTVSS,low polyreactivity
18,QVQLVESGGGLVQAGGSLRLSCAASGSIFFEYAMGWYRQAPGKERALVASINRGGGSTYYADSVKGRFTISRDYAKNTVYLQMNILIPEDTAVYYCAAQWKYRQYYLDYYWGQGTQVTVSS,low polyreactivity
19,QVQLVESGGGLVQAGGSLRLSCAASGSIFFFNAMGWYRQAPGKERELVAAISESGTSTYYADSVKGRFTISRDNAKNTVFLQMNSLKPEDTAVFYCKVVFRYAYGVYYTPEFYYWGQGTQVTVSS,low polyreactivity
20,QVQLVESGGGLVQAGGSLRLSCAASGSIFFFYDMGWYRKATGKERELVAAISSSGTRTYYADSVKGRFTISRDNAKNTVYLQMNSLKPEDTAVYYCAVVYPSENYYRYDYWGQVTQVTVSS,high polyreactivity
21,QVQLVESGGGLVQAGGSLRLSCAASGSIFFGNAMGWYRQAPGKERELVAAIDSGGGTNYADSVKGRFTISRDNAKNTVYLQMNSLKPEDTAVYYCAREQGVNRNHDYWGQGTQVTVSS,low polyreactivity
